± gives the standard error. For part of these data: Variants at the floor of the assay were thinned out.
B1: glmS ribozyme (parent)
chain: AUAAAAGCGCCAGAACUACAGAAAUGUAGUUGACGAGGAGGAGGUUUAUCGAAUUUUCGGCGGAUGCCUCCAAA

Columns and labels:
Details in all cases: with glucosamine-6-phosphate
glucosamine-6-phosphate [1] = variants of: B1; assay: kcat; higher = faster cleavage; RNA array
Summary of the method: (§1)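 Barcoded ribozyme variants on sequenced MiSeq chips were transcribed in situ by E. coli RNA polymerase and followed at 37 °C through a hybridised Cy3 probe. Glucosamine-6-phosphate at 40 μM to 10 mM in HEPES/KCl/Mg(OAc)2 buffer was flowed in, and tiles were imaged over ~14 h. Signals were normalised to baseline and to non-cleaving reference variants, and per-tile medians were fit to one- or two-exponential decays to give kobs. Weighted Michaelis–Menten fits across concentrations gave kcat and KM.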

glucosamine-6-phosphate [2] = variants of: B1; assay: self-cleavage kobs at 40 uM GlcN6P; higher = faster cleavage; RNA array
Summary of the method: as §1

glucosamine-6-phosphate [3] = variants of: B1; assay: self-cleavage kobs at 160 uM GlcN6P; higher = faster cleavage; RNA array
Summary of the method: as §1

glucosamine-6-phosphate [4] = variants of: B1; assay: self-cleavage kobs at 640 uM GlcN6P; higher = faster cleavage; RNA array
Summary of the method: as §1

glucosamine-6-phosphate [5] = variants of: B1; assay: self-cleavage kobs at 2500 uM GlcN6P; higher = faster cleavage; RNA array
Summary of the method: as §1

glucosamine-6-phosphate [6] = variants of: B1; assay: self-cleavage kobs at 10000 uM GlcN6P; higher = faster cleavage; RNA array
Summary of the method: as §1

glucosamine-6-phosphate [7] = variants of: B1; assay: KM; higher = weaker cofactor use; RNA array
Summary of the method: as §1

Row | Variant | kcat (glucosamine-6-phosphate [1]) [s⁻¹] | self-cleavage kobs at 40 uM GlcN6P (glucosamine-6-phosphate [2]) [s⁻¹] | self-cleavage kobs at 160 uM GlcN6P (glucosamine-6-phosphate [3]) [s⁻¹] | self-cleavage kobs at 640 uM GlcN6P (glucosamine-6-phosphate [4]) [s⁻¹] | self-cleavage kobs at 2500 uM GlcN6P (glucosamine-6-phosphate [5]) [s⁻¹] | self-cleavage kobs at 10000 uM GlcN6P (glucosamine-6-phosphate [6]) [s⁻¹] | KM (glucosamine-6-phosphate [7]) [µM]
1 | A14G C71U | 0.133 ± 0.062 | 0.0019 ± 0.00017 | 0.00542 ± 0.00067 | 0.0171 ± 0.0027 | 0.0711 ± 0.027 | 0.112 ± 0.022 | –
2 | C16U U65G C67G | 0.0015 ± 8.8e-05 | 3.76e-05 ± 1.7e-05 | – | 0.000493 ± 0.00013 | 0.000981 ± 0.00024 | 0.00128 ± 0.00032 | 1420 ± 160
3 | U56C C70U | 0.000177 ± 5e-06 | – | – | 4.77e-05 ± 6.2e-06 | 0.000111 ± 9.3e-06 | 0.00015 ± 1e-05 | 1660 ± 120
4 | A52U G66A | 0.000745 ± 0.00034 | – | – | – | 5.37e-05 ± 1.4e-05 | 0.000185 ± 2.9e-05 | –
5 | C16G G41C | 2.59e-05 ± 7.1e-06 | < 1e-05 | < 1e-05 | – | – | – | –
6 | A15U U49G C50G G63A | 2.96e-05 ± 6.8e-06 | < 1e-05 | – | – | – | – | –
7 | U31A U54G | 0.0208 ± 0.0046 | 0.00027 ± 3.9e-05 | 0.00075 ± 0.00015 | 0.00291 ± 0.00094 | 0.016 ± 0.0066 | 0.0152 ± 0.0024 | 3520 ± 990
8 | G13C U56A | 0.000106 ± 6.7e-06 | – | – | – | 4.38e-05 ± 7.3e-06 | 7.93e-05 ± 9.5e-06 | 3410 ± 530
9 | G40U G66A | 0.00396 ± 0.00044 | 8.13e-05 ± 1.2e-05 | 0.000207 ± 5.2e-05 | 0.000901 ± 0.00016 | 0.00208 ± 0.0004 | 0.00326 ± 0.00035 | 2220 ± 390
10 | U45A C68U | 0.0022 ± 0.00039 | 7.41e-05 ± 1.2e-05 | 0.000537 ± 0.00012 | 0.000729 ± 0.00013 | 0.00176 ± 0.00032 | 0.00194 ± 0.00027 | 1080 ± 320
11 | G32U G41U | 0.000152 ± 3.7e-06 | – | – | 4.19e-05 ± 1.5e-05 | 9.36e-05 ± 1.9e-05 | 0.00013 ± 1e-05 | 1640 ± 170
12 | U47C | 0.00454 ± 0.0006 | 0.000129 ± 2.6e-06 | 0.000428 ± 1.8e-05 | 0.00142 ± 4.2e-05 | 0.00412 ± 0.00014 | 0.00375 ± 9.2e-05 | 1380 ± 250
13 | G29U A33U | 6.61e-05 ± 1.9e-06 | – | – | – | 2.87e-05 ± 9.6e-06 | 4.97e-05 ± 6.7e-06 | 3280 ± 300
14 | A14G U31G | 0.00752 ± 0.0003 | – | 0.000539 ± 9.8e-05 | 0.00175 ± 0.00031 | 0.0039 ± 0.00067 | 0.00635 ± 0.00094 | 2120 ± 140
15 | G43C C67A | 0.000634 ± 8.3e-05 | – | 4.22e-05 ± 1.1e-05 | 0.000205 ± 2e-05 | 0.000479 ± 5.7e-05 | 0.00052 ± 4.3e-05 | 1520 ± 410
16 | A36U A64G | 1.98e-05 ± 2e-06 | – | – | – | – | 1.85e-05 ± 5.8e-06 | –

Row | Variant | kcat (glucosamine-6-phosphate [1]) [s⁻¹] | self-cleavage kobs at 40 uM GlcN6P (glucosamine-6-phosphate [2]) [s⁻¹] | self-cleavage kobs at 160 uM GlcN6P (glucosamine-6-phosphate [3]) [s⁻¹] | self-cleavage kobs at 640 uM GlcN6P (glucosamine-6-phosphate [4]) [s⁻¹] | self-cleavage kobs at 2500 uM GlcN6P (glucosamine-6-phosphate [5]) [s⁻¹] | self-cleavage kobs at 10000 uM GlcN6P (glucosamine-6-phosphate [6]) [s⁻¹] | KM (glucosamine-6-phosphate [7]) [µM]
17 | C34A A36U | < 1e-05 | < 1e-05 | – | < 1e-05 | < 1e-05 | < 1e-05 | –
18 | A12G G29U | 0.000345 ± 2.6e-05 | – | – | 5.19e-05 ± 7.9e-06 | 0.000134 ± 1.9e-05 | 0.000255 ± 4.1e-05 | 3740 ± 440
19 | A12U U65C | 0.0021 ± 0.00079 | 4.28e-05 ± 1.2e-05 | 0.000217 ± 5.2e-05 | 0.000421 ± 9.9e-05 | 0.00209 ± 0.00035 | 0.00151 ± 0.00034 | –
20 | G13C C68A | 1.1e-05 ± 2.3e-06 | – | – | – | – | – | –
21 | C16A U54A | 0.0017 ± 0.00051 | 5.13e-05 ± 1.3e-05 | 0.000136 ± 2.6e-05 | 0.000351 ± 4.9e-05 | 0.00076 ± 0.00015 | 0.00169 ± 0.00028 | 2150 ± 940
22 | C11G A48G G59C | 0.000345 ± 1.4e-05 | – | – | 8.84e-05 ± 2.1e-05 | 0.0002 ± 3.7e-05 | 0.000286 ± 7.5e-05 | 1870 ± 150
23 | U30G C68A | 2.01e-05 ± 5.2e-06 | – | – | – | – | – | –
24 | G63C C70U | < 1e-05 | < 1e-05 | – | – | < 1e-05 | – | –
25 | U30G G41A | 0.000293 ± 2.6e-05 | – | 4.24e-05 ± 1.1e-05 | 0.000124 ± 2e-05 | 0.00025 ± 4.4e-05 | 0.000248 ± 4.4e-05 | 881 ± 160
26 | C16U U31G | 0.0126 ± 0.0042 | 0.000138 ± 2.7e-05 | 0.00118 ± 0.00045 | 0.00226 ± 0.00062 | 0.00478 ± 0.00085 | 0.0111 ± 0.0031 | 3460 ± 1500
27 | G13C G41U | 3.06e-05 ± 9.2e-06 | – | – | – | – | – | –
28 | C16U C68U | 0.0026 ± 0.0006 | 8.07e-05 ± 5.9e-06 | 0.000263 ± 2.9e-05 | 0.000649 ± 5.6e-05 | 0.00247 ± 0.00034 | 0.00235 ± 0.00021 | 1440 ± 460
29 | G9A G13C U30G G63U U69G | < 1e-05 | < 1e-05 | – | – | < 1e-05 | – | –
30 | G40C A53G | 0.00206 ± 0.00018 | 4.19e-05 ± 1.7e-05 | 0.000126 ± 3e-05 | 0.000539 ± 0.00012 | 0.00115 ± 0.00032 | 0.00166 ± 0.00025 | 2160 ± 310
31 | G32C A42U | < 1e-05 | – | < 1e-05 | – | < 1e-05 | – | –
